Data as given in paper PMC10844685.

Biological target: pyruvate kinase isoform M2 (PKM2) (human (endogenous in MDA-MB-231 and Hs578T)) (UniProt P14618)
Test: native gel or EMSA; total protein of MDA-MB-231 and Hs578T cells, not heat-denatured, non-denaturing loading buffer, native PAGE running buffer, western blot with anti-PKM2; cells with miR-29c-3p inhibitor, with or without TRIM9 knockdown

Chain of pyruvate kinase isoform M2 (PKM2), P14618 1-531 (enzyme; other documents disagree on this pair) (P14618 whole entry, canonical isoform): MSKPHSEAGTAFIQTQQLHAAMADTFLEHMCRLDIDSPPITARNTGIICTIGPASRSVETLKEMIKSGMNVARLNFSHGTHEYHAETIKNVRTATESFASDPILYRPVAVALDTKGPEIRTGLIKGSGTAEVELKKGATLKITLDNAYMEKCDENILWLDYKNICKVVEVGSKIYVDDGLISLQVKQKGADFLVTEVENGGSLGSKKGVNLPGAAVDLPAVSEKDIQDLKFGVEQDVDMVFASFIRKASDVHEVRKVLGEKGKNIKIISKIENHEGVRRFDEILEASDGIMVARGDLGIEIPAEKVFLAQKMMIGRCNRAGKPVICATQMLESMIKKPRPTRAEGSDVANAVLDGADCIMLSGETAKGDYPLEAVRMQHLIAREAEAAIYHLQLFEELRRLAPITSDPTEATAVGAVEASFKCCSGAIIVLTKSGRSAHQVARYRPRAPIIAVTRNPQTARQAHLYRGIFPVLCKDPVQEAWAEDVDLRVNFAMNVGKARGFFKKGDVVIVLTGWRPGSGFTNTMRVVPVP

stoichiometry N: 2
Substance: pyruvate kinase isoform M2 (PKM2), P14618 1-531 (enzyme; other documents disagree on this pair)
